Source: patent publication US20090081195A1 (OTTAWA HEALTH RESEARCH INSTITUTE, published 2009)
Blank lines part the entries; values can stand above or below the binder they belong to.

Biological target: T1, GST-SLK 950-1202 (GST-tagged SLK ATH domain) (murine, UniProt O54988 981-1233)
T1 construct: Bacterially expressed GST fusion on glutathione sepharose; also called GST-ATH; not shown: glutathione S-transferase (GST) tag of pGEX-5X or pGEX-4T1 (Amersham)
T1 sequence: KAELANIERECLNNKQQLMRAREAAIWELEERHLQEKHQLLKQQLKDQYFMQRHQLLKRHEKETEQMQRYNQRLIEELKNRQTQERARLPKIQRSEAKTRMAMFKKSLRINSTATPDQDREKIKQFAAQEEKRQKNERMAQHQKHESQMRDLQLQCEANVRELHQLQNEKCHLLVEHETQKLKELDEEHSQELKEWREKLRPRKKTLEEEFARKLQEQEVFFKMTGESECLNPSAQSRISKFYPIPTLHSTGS
Experiment: binding of [35S]-labeled Ldb2 deletions to GST-ATH
Description: (c) Schematics of Myc epitope-tagged SLK deletion mutants. […] (d) Co-transfection of HA-tagged Ldb2 and Myc-tagged SLK deletion constructs was performed in HEK 293 cells. Extracts were immunoprecipitated with anti-HA antibody (12CA5) and immunoblotted with anti-Myc antibody (9E10) (bottom panel). Expression of the transfected constructs was confirmed by western blotting (top and middle panels). […] (e) Reciprocal co-IP showing that full length HA-SLK associates with Myc-Ldb1 and 2. (f) Association of endogenous SLK and Ldb. Ldb1 was immunoprecipitated from protein lysates obtained from MEF cells and primary neurons and subjected to western blot analysis with an anti-SLK antibody. A 220 KDa band corresponding to SLK co-precipitated with […]. Reciprocal immunoprecipitations were also performed on N1E 115 neuroblastoma cells or primary cortical neurons. A 50 Kda band corresponding to Ldb1 co-precipitated with SLK. As a control for non-specific binding to the sepharose beads, protein-A sepharose beads alone were added to 400 μg of the same protein lysates. Similar results were obtained with Ldb2
To map the Ldb1/2 domains of interaction, [35S]-labeled deletions of Ldb1 were assayed for binding to a GST-tagged SLK ATH domain (FIG. 17a). […] In addition, versions of Ldb2 lacking the C-terminal LIM binding domain (ΔLBD) were able to bind the SLK ATH domain while the LBD of Ldb2 by itself could not bind (FIG. 17b). Further deletion of 62 amino acids from the carboxy terminal end of the dimerization domain (DDΔC) retained binding thus refining the Ldb2 binding region to the SLK ATH domain in the C-terminal 124 amino acids of Ldb2. An analogous set of Ldb1 deletion mutants were tested for binding to GST-ATH with similar results (data not shown).

- binding result: binds
B1: HA-Ldb2 NLS (aa 188-288) (other, mouse, UniProt O55203 188-288, looked up, not shown: small tags and cut ends)
chain: SKNITRMGLTNFTLNYLRLCVILEPMQELMSRHKTYNLSPRDCLKTCLFQKWQRMVAPPAEPTRQPTTKRRKRKNSTSSTSNSSAGNTTNSAGSKKKTPAA
modifications: [35S]-methionine label
notes: range 188-288; In vitro translated; also called Ldb2 nuclear localization signal domain

- binding result: binds
B2: HA-Ldb2 DD (aa 1-186) (other, mouse, UniProt O55203 1-186, looked up, not shown: small tags and cut ends)
chain: MSSTPHDPFYSSPFGPFYRRHTPYMVQPEYRIYEMNKRLQSRTEDSDNLWWDAFATEFFEDDATLTLSFCLEDGPKRYTIGRTLIPRYFSTVFEGGVTDLYYILKHSKESYHNSSITVDCDQCAMVTQHGKPMFTKVCTEGRLILEFTFDDLMRIKTWHFTIRQYRELVPRSILAMHAQDPQVLDQ
modifications: [35S]-methionine label
notes: In vitro translated; also called Ldb2 dimerization domain

- binding result: no binding
B3: HA-Ldb2 LBD (aa 298-373) (other, mouse, UniProt O55203 298-373, looked up, not shown: small tags and cut ends)
chain: DVMVVGEPTLMGGEFGDEDERLITRLENTQYDAANGMDDEEDFNNSPALGNNSPWNSKPPATQETKSENAPPQASQ
modifications: [35S]-methionine label
notes: In vitro translated
